1 substance from paper PMC11389781 can be followed below.

In assay [1] the target is human CaV2.2 pore-forming subunit α1B (CACNA1B), wild type (human) (UniProt Q00975).
In assay [2] the target is human CaV2.2 α1B D185C (VSD I labelling variant) (human) (UniProt Q00975).
For assay [3], the target named is human CaV2.2 α1B N1266C (VSD III labelling variant) (human) (UniProt Q00975).
In assay [4] the target is human CaV2.2 α1B N1580C (VSD IV labelling variant) (human) (UniProt Q00975).

As for “Gβγ complex of human Gβ1 and Gγ2 (from UniProt P62873 1-340; P59768 1-71)”, in assay [1], the shift of V0.5 of CaV2.2 pore opening toward positive potentials by coexpressed Gβγ (tail currents, cut-open oocyte voltage clamp, 20 ms pulses) was 14 mV. For the same substance, the shift of V0.5 of VSD I activation by coexpressed Gβγ (voltage-clamp fluorometry, ΔF-V) in assay [2] worked out at 21 mV. Besides, the shift of V0.5 of VSD III activation by coexpressed Gβγ (voltage-clamp fluorometry, ΔF-V); VSD III was not modulated by Gβγ in assay [3] was -0.1 mV. Besides, the shift of V0.5 of VSD IV activation by coexpressed Gβγ (voltage-clamp fluorometry, ΔF-V); modest inhibition in assay [4] was found to be 13 mV.
